{"source": "paper PMC9197560", "target": "mature TGFβ1 produced in Nicotiana benthamiana (human)", "assay": "non-reducing Tricine-PAGE with Western blot; mature TGFβ1 released by HCl, 10% Tricine-PAGE under reducing or non-reducing conditions, anti-TGFβ1 blot", "data": [{"substance": "mature TGFβ1 produced in Nicotiana benthamiana (ligand)", "values": [{"measurement": "stoichiometry N", "value": 2}]}]}
